Source: patent US20250121082A1 (SHANDONG BOAN BIOTECHNOLOGY, published 2025)
Like-named read-outs stand apart in the source and are kept apart here.

Assays:
Test in all cases: cell-based or functional assay
[1] = molecular target: T1, CD228 on cells stably expressing exogenous CD228 gene (MC38-CD228, A375-CD228, A549-CD228) (UniProt P08582 20-709)
T1 sequence (looked up): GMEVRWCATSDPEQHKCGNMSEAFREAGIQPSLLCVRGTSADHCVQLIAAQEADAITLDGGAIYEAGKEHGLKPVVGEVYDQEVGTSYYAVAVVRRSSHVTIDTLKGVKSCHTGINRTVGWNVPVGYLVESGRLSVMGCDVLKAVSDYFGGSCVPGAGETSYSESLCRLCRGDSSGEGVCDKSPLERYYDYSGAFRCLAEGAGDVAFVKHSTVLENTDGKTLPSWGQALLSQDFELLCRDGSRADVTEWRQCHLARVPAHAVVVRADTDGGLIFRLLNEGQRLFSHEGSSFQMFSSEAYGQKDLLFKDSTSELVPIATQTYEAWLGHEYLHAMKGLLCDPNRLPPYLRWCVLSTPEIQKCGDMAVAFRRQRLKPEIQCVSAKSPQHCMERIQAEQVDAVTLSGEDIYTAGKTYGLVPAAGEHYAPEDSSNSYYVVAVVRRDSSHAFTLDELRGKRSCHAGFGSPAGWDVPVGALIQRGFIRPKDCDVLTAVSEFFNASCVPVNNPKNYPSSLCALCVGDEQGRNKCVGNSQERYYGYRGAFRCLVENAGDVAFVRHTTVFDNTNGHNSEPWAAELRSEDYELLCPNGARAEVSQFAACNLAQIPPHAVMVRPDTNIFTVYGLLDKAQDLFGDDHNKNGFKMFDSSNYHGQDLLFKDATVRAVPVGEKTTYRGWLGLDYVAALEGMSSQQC

[2] = molecular target: T2, CD228 protein on human melanoma SK-MEL-5 cells (human, UniProt P08582 20-709)
T2 sequence (looked up): T1 sequence (looked up)

[3] = molecular target: T1, CD228 on cells stably expressing …; remark: listed apart in the source

IC50 (ng/mL), inhibition of A375-CD228 cell proliferation [1]: 61.8 ng/mL | IC50 (ng/mL), inhibition of MC38-CD228 cell proliferation [1]: 102 ng/mL | IC50 (ng/mL), inhibition of SK-MEL-5 cell proliferation [2]: 11.5 ng/mL | IC50 (ng/mL), inhibition of A375-CD228 cell proliferation [3]: 13.9 ng/mL | IC50 (ng/mL), inhibition of A549-CD228 cell proliferation [3]: 15.2 ng/mL
B1: CA149-BNLD11 (antibody, human IgG1, kappa, V domains shown)
VH: EVQLVESGGGVVQPGRSLRLSCAASGFTFSSYAMHWVRQAPGKGLEWVAVISFDGSNKYYTDSVKGRFTISRDNSKNTLYLQMNSLRAEDTAVYYCAREVPYYYGSGPFDYWGQGTLVTVSS
VL: EIVLTQSPATLSVSPGERATLSCRASQSVSSNLAWYQQKPGQAPRHLIDGASSRASGIPDRFSGSGSGTDFTLTISRLEPEDFAVYYCQQYGSSPPFTFGPGTKVDIKR
modifications: BNLD11 linker-drug coupled to the TCEP-reduced antibody; sites not stated; BNLD11 linker-drug (MC-β-Ala-(glucuronide)PAB-MMAE) coupled to the TCEP-reduced antibody, average DAR 4.1; sites not stated
